Source: article PMC2174006 (The Journal of Cell Biology, 2002)
No end group written: not given here.

Target: recombinant murine [32P]RIIα (murine, UniProt P12367 1-401, 32P-labelled)
Test: peptide or protein array

Chain of recombinant murine [32P]RIIα (P12367 whole entry): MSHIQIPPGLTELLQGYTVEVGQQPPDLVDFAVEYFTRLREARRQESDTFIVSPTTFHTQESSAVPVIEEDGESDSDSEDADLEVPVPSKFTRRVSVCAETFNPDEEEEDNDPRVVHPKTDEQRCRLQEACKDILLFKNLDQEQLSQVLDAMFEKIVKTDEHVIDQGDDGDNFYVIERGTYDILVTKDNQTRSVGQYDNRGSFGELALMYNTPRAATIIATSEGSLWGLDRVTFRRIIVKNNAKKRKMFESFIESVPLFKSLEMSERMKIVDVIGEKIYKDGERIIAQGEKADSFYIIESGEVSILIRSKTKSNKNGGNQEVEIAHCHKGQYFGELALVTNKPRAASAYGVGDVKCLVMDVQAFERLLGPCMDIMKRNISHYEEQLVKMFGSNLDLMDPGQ

- binding result: binds
B1: Rab32 peptide 178–197 (peptide)
peptide: Ac-NINIEEAARFLVEKILVNHQ
